Laboratory results from paper doi:10.1101/2020.05.05.078782.

Molecular target: BD1 bromodomain construct (residues 44-168) of human Brd4 (human) (UniProt O60885)
Assay: SPR

Row | Substance | Kd
1 | YFV-C (residues 1-11) peptide acetylated at lysine 4 | 362 µM
2 | YFV-C (residues 1-11) peptide acetylated at lysine 8 | 540 µM
